Test results: the supplement of paper PMC10724198
± gives the standard deviation of the averaged measurements.

test system: Saccharomyces cerevisiae; experiment: protein stability index of tFT-peptide fusion (C-terminal peptide) (PSI (0-1 scale)); higher = more stable (slower turnover); conditions: genetic background: wild type; temperature: 30 C
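Further: PSI is a weighted mean of sequencing reads over stability bins, variants kept only with over 10 reads, mCherry proximal and sfGFP distal, peptide attached via GGGS linker.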

RYRRQESYVIIK and SAACQRWGYLRV are within error of each other in protein stability index: 0.766 ± 0.13 for the first, 0.68781 ± 0.00045 for the second.

First: SAERLKIVNDRI
Second: SAFLRRFLFFQW
The protein stability index of the first is higher: 0.753 ± 0.055 for the first, 0.572 ± 0.035 for the second.

SALPPSRLPRSP and SAMSFTSRGVRH are within error of each other in protein stability index: 0.713 ± 0.049 for the first, 0.698 ± 0.011 for the second.

SAPLLLPPLSSP and SAPPPSPAPSPY are within error of each other in protein stability index: 0.713 ± 0.023 for the first, 0.677 ± 0.023 for the second.

Compared with SARDVPPPPLTP, SASRSLFLSRSP is lower in protein stability index: 0.733 ± 0.018 for the first, 0.6703 ± 0.0023 for the second.

Going from SASWARRSLPIW to SATIRDILHCRF, the protein stability index rises from 0.729 ± 0.045 to 0.8435 ± 0.0021.

SAVHRSVPMGGG and SAVSVATVVWSV are within error of each other in protein stability index: 0.666 ± 0.032 for the first, 0.705 ± 0.092 for the second.

Going from SCEERVGEKVMG to SCFEFGALSSPI, the protein stability index rises from 0.6398 ± 0.0014 to 0.753 ± 0.034.

SCGWRGGWWVMG and SCLPSDRLTYLP are within error of each other in protein stability index: 0.691 ± 0.072 for the first, 0.714 ± 0.014 for the second.

SCLRFCSFGSPF and SCLYPTQILART are within error of each other in protein stability index: 0.757 ± 0.12 for the first, 0.631 ± 0.017 for the second.

Going from SCPPRLVFPRPS to SCRVSFLFFLFE, the protein stability index falls from 0.66 ± 0.034 to 0.562 ± 0.016.

SCTPEDGRVRYT and SDCPYVYVRVRD are within error of each other in protein stability index: 0.66 ± 0.048 for the first, 0.69 ± 0.02 for the second.

Going from SDDPPLSLVISL to SDMCLGRVFCFL, the protein stability index falls from 0.754 ± 0.02 to 0.63 ± 0.069.

SDSPSAPPSAYH and SDVCVYVIRDIG are within error of each other in protein stability index: 0.62 ± 0.058 for the first, 0.565 ± 0.068 for the second.

SDVFGGVLSFGF and SEAKRMSGSSAN are within error of each other in protein stability index: 0.6613 ± 0.0008 for the first, 0.635 ± 0.041 for the second.

SEICGAPLARLR and SEILFRSSPFPI are within error of each other in protein stability index: 0.707 ± 0.034 for the first, 0.721 ± 0.09 for the second.

SELEADKRIKRK and SEPADGRDRMAE are within error of each other in protein stability index: 0.739 ± 0.094 for the first, 0.6885 ± 0.0054 for the second.

SERNENKTGKVQ and SESKGAMCQRNA are within error of each other in protein stability index: 0.747 ± 0.11 for the first, 0.6475 ± 0.0054 for the second.

SETMFRLVADIT and SFACVYVPPALF are within error of each other in protein stability index: 0.715 ± 0.011 for the first, 0.712 ± 0.025 for the second.

Compared with SFCHWRFSFPKC, SFFGYPCFLLSI is lower in protein stability index: 0.666 ± 0.04 for the first, 0.54 ± 0.026 for the second.

SFFRFRIPLFPS and SFFSVQIQFGLS are within error of each other in protein stability index: 0.669 ± 0.065 for the first, 0.617 ± 0.012 for the second.

SFFVTVAGPFQI and SFGIGFFATRGF are within error of each other in protein stability index: 0.686 ± 0.012 for the first, 0.676 ± 0.031 for the second.

SFGLRCPASRGS and SFGPQFLAPVFS are within error of each other in protein stability index: 0.648 ± 0.052 for the first, 0.706 ± 0.031 for the second.

SFGSVFGGRWCV and SFKSCMCLFCGV are within error of each other in protein stability index: 0.672 ± 0.035 for the first, 0.659 ± 0.034 for the second.

SFLAHSFLPLPP and SFLLPTLVRLSH are within error of each other in protein stability index: 0.631 ± 0.069 for the first, 0.65 ± 0.022 for the second.

First: SFLPPLFPHPPP
Second: SFLRTRPHAPLP
The protein stability index of the first is higher: 0.841 ± 0.031 for the first, 0.6363 ± 0.0021 for the second.

SFLSLYRLTPGR and SFLVLRGSGGKW are within error of each other in protein stability index: 0.655 ± 0.048 for the first, 0.713 ± 0.082 for the second.

SFLVSALASSLA and SFNHAKPPLHPA are within error of each other in protein stability index: 0.652 ± 0.019 for the first, 0.683 ± 0.03 for the second.

First: SFNVFKINSITV
Second: SFPHSFLFPLFP
The protein stability index of the first is lower: 0.562 ± 0.019 for the first, 0.751 ± 0.09 for the second.

SFPLSPAFPSFL and SFPPPLPPSPTP are within error of each other in protein stability index: 0.744 ± 0.025 for the first, 0.697 ± 0.036 for the second.

SFPRPTSALSLN and SFPRYRWRAATE are within error of each other in protein stability index: 0.604 ± 0.075 for the first, 0.6704 ± 0.0021 for the second.

SFPSLLRPPHFS and SFPVPFPRFFPP are within error of each other in protein stability index: 0.706 ± 0.041 for the first, 0.714 ± 0.03 for the second.

Going from SFRDRHRRLCDL to SFRFFVSGFVVL, the protein stability index falls from 0.596 ± 0.035 to 0.531 ± 0.009.

SFRLRSLVFGFF and SFRQSRLKRRGY are within error of each other in protein stability index: 0.597 ± 0.067 for the first, 0.672 ± 0.15 for the second.

Going from SFSACGEPVPPG to SFSFPFFFWGLL, the protein stability index falls from 0.661 ± 0.0077 to 0.592 ± 0.0061.

SFSIPTCSVPLT and SFSPLRLPPSLL are within error of each other in protein stability index: 0.687 ± 0.096 for the first, 0.724 ± 0.049 for the second.

Going from SGAGVGWGCSSV to SGAGVNWGVGWG, the protein stability index rises from 0.635 ± 0.047 to 0.714 ± 0.029.

SGALSDVCVMLL and SGAPAQLSLSSL are within error of each other in protein stability index: 0.652 ± 0.026 for the first, 0.6568 ± 0.0032 for the second.

SGCPGPNVPRVP and SGDGGVGHWVGG are within error of each other in protein stability index: 0.705 ± 0.014 for the first, 0.676 ± 0.025 for the second.

Compared with SGEVMGAMVLHE, SGFFGFLLGAYG is lower in protein stability index: 0.773 ± 0.12 for the first, 0.5876 ± 0.0031 for the second.

SGFLLVLRRPRE and SGGGGWVVGGVA are within error of each other in protein stability index: 0.655 ± 0.05 for the first, 0.663 ± 0.011 for the second.

SGGTDMLALRVR and SGHRPPRVAVDS are within error of each other in protein stability index: 0.632 ± 0.062 for the first, 0.66 ± 0.044 for the second.

First: SGIWLKRVTMYR
Second: SGKGRRLVLGSS
The protein stability index of the first is higher: 0.7027 ± 0.0047 for the first, 0.6895 ± 0.0039 for the second.

SGKVNNKEGKWK and SGLAARFGLPIR are within error of each other in protein stability index: 0.686 ± 0.015 for the first, 0.674 ± 0.016 for the second.

Compared with SGLPALPRPVWP, SGLPVPFSALRS is higher in protein stability index: 0.491 ± 0.076 for the first, 0.718 ± 0.049 for the second.

SGLRQGRHVYPA and SGPAVLPTFVSP are within error of each other in protein stability index: 0.682 ± 0.011 for the first, 0.65 ± 0.077 for the second.

SGPGGVGPTGGI and SGPLPCPPLPAP are within error of each other in protein stability index: 0.6585 ± 0.0055 for the first, 0.676 ± 0.016 for the second.

SGRIASQACLIW and SGRRRAPPAPSP are within error of each other in protein stability index: 0.671 ± 0.045 for the first, 0.732 ± 0.037 for the second.

SGRSQERMYARW and SGRVRPNSRASP are within error of each other in protein stability index: 0.656 ± 0.012 for the first, 0.698 ± 0.073 for the second.

SGSAPFLRTSKL and SGSPVFLDPPLS are within error of each other in protein stability index: 0.685 ± 0.061 for the first, 0.698 ± 0.015 for the second.

Going from SGTSDDWWPGVA to SGVCGRVGGGLR, the protein stability index falls from 0.785 ± 0.038 to 0.622 ± 0.047.

SGVLASSCPSSC and SGVVGLGCVPWF are within error of each other in protein stability index: 0.659 ± 0.016 for the first, 0.857 ± 0.2 for the second.

SGWSVGVMGESG and SGYKVYNSVHIL are within error of each other in protein stability index: 0.627 ± 0.092 for the first, 0.602 ± 0.026 for the second.

Compared with SHASTPSSRVIP, SHICSFLGICHA is lower in protein stability index: 0.716 ± 0.01 for the first, 0.576 ± 0.031 for the second.

First: SHIPRNLSPFSS
Second: SHLAYVKWYIGD
The protein stability index of the first is higher: 0.754 ± 0.056 for the first, 0.6305 ± 0.0042 for the second.

SHPAPGSPTSPS and SHPPFPFAPPPR are within error of each other in protein stability index: 0.67064 ± 0.00027 for the first, 0.674 ± 0.031 for the second.

Going from SHPPPPPHTPPS to SHRTRPSQTPTQ, the protein stability index falls from 0.736 ± 0.02 to 0.643 ± 0.05.

First: SHSPPSPPLPPP
Second: SHTIVPNPLKLV
The protein stability index of the first is higher: 0.6773 ± 0.0042 for the first, 0.576 ± 0.019 for the second.

SHTSPSTPPPSP and SICLLSAALPPP are within error of each other in protein stability index: 0.681 ± 0.0085 for the first, 0.708 ± 0.029 for the second.

Compared with SIFSFCSNTWFL, SIGACGEVTFGC is lower in protein stability index: 0.747 ± 0.029 for the first, 0.7083 ± 0.00078 for the second.

Going from SIIGRKVNGVSN to SIIIPATCEYLV, the protein stability index falls from 0.711 ± 0.0089 to 0.603 ± 0.013.

First: SIKGLVRSIALN
Second: SILFMYPARNAP
The protein stability index of the first is lower: 0.638 ± 0.0064 for the first, 0.7177 ± 0.0028 for the second.

Compared with SILRLRSVVPAE, SIPLIMPLSDYV is higher in protein stability index: 0.6457 ± 0.0027 for the first, 0.675 ± 0.015 for the second.

SIVGGVVRVLCG and SKGARQRQPPDG are within error of each other in protein stability index: 0.603 ± 0.048 for the first, 0.5983 ± 0.0041 for the second.

Going from SKGFVIMRAACF to SKGLPADSQQPF, the protein stability index rises from 0.572 ± 0.018 to 0.729 ± 0.054.

SKIKLYKIKKKK and SKKARIYIKKRR are within error of each other in protein stability index: 0.7206 ± 0.0054 for the first, 0.683 ± 0.053 for the second.

SKKLRRNKYRNG and SKKRKRNKKKGE are within error of each other in protein stability index: 0.6871 ± 0.0039 for the first, 0.74 ± 0.098 for the second.

SKQKSKNYEAFK and SKRSYEEGNIVY are within error of each other in protein stability index: 0.721 ± 0.039 for the first, 0.672 ± 0.028 for the second.

SKRYREKIVRNK and SKTEKELSNREF are within error of each other in protein stability index: 0.677 ± 0.04 for the first, 0.659 ± 0.025 for the second.

SLAFIRFPSPSP and SLAFLPPSLSSS are within error of each other in protein stability index: 0.668 ± 0.0083 for the first, 0.713 ± 0.056 for the second.

SLAPPVPPPPLH and SLFNADPYGFNL are within error of each other in protein stability index: 0.67 ± 0.026 for the first, 0.711 ± 0.03 for the second.

SLFRVAFLYVQV and SLGGGGGLAWWL are within error of each other in protein stability index: 0.5406 ± 0.0018 for the first, 0.795 ± 0.26 for the second.

SLGWGRVNVCGV and SLHSSQYTRHSG are within error of each other in protein stability index: 0.666 ± 0.0031 for the first, 0.673 ± 0.024 for the second.

First: SLHVSSLPYALQ
Second: SLKHRSSLRQLI
The protein stability index of the first is higher: 0.662 ± 0.082 for the first, 0.519 ± 0.01 for the second.

SLKIPSPLSPVL and SLLCDQSSLGQC are within error of each other in protein stability index: 0.699 ± 0.028 for the first, 0.747 ± 0.11 for the second.

SLLELSPPRSPP and SLLFLRFLFSTP are within error of each other in protein stability index: 0.681 ± 0.03 for the first, 0.705 ± 0.0086 for the second.

SLLLPLPLPVRL and SLLPCAPHPRPV are within error of each other in protein stability index: 0.582 ± 0.0086 for the first, 0.662 ± 0.074 for the second.

SLPHHRPPHPRT and SLPKSSLFAPHL are within error of each other in protein stability index: 0.752 ± 0.17 for the first, 0.715 ± 0.023 for the second.

SLPLPPPSPPHV and SLPPSPPPPSLP are within error of each other in protein stability index: 0.676 ± 0.018 for the first, 0.715 ± 0.028 for the second.

SLPRPYPQKVTG and SLRLHCSRQRRP are within error of each other in protein stability index: 0.621 ± 0.015 for the first, 0.649 ± 0.048 for the second.
